# Assay results as given in article PMC3718817 (2013).
# B1: Gal4AD-Sds22 [S. cerevisiae] / Gal4(1-147)-Glc7 [S. cerevisiae] (parent complex)
# chain 1: MDKNSVNKDSEEKDERHKIEVVDDTNPDFITADSELTQDLPDDVEVIDLVHLKIKSLEDLNLYRFKNLKQLCLRQNLIESISEVEVLPHDKIVDLDFYDNKIKHISSNVNKLTKLTSLDLSFNKIKHIKNLENLTDLENLYFVQNSISKIENLSTLKSLKNLELGGNKVHSIEPDSFEGLSNLEEIWLGKNSIPRLINLHPLKNLKILSIQSNKLKKIENLEELTNLEELYLSHNFITKIEGLEKNLKLTTLDVTSNKITSLENLNHLSNLTDIWASFNKIDQSFESLGENLSALSRLETIYLEGNPIQLENKTSYRRKLTMNLPPSLQKIDATYIRG
# chain 2: MDSQPVDVDNIIDRLLEVRGSKPGQQVDLEENEIRYLCSKARSIFIKQPILLELEAPIKICGDIHGQYYDLLRLFEYGGFPPESNYLFLGDYVDRGKQSLETICLLLAYKIKYPENFFILRGNHECASINRIYGFYDECKRRYNIKLWKTFTDCFNCLPIAAIIDEKIFCMHGGLSPDLNSMEQIRRVMRPTDIPDVGLLCDLLWSDPDKDIVGWSENDRGVSFTFGPDVVNRFLQKQDMELICRAHQVVEDGYEFFSKRQLVTLFSAPNYCGEFDNAGAMMSVDESLLCSFQILKPAQKSLPRQAGGRKKK
# Variants of: B1
# Experiment: two-hybrid assay (β-galactosidase activity); three independent PJ69-4A transformants; parent: 23; read off a plot
row,Variant,response
1,chain 1 MDKNSVNKDSEEKDERHKIEVVDDTNPDFITADSELTQDLPDDVEVIDLVHLKIKSLEDLNLYRFKNLKQLCLRQNLIESISEVEVLPHDKIVDLDFYDNKIKHISSNVNKLTKLTSLDLSFNKIKHIKNLENLTDLENLYFVQNSISKIENLSTLKSLKNLELGGNKVHSIEPDSFEGLSNLEEIWLGKNSIPRLINLHPLKNLKILSIQSNKLKKIENLEELTNLEELYLSHNFITKIEGLEKNLKLTTLDVTSNKITSLENLNHLSNLTDIAASFNKIDQSFESLGENLSALSRLETIYLEGNPIQLENKTSYRRKLTMNLPPSLQKIDATYIRG [chain 1 W275A],~11
2,chain 1 MDKNSVNKDSEEKDERHKIEVVDDTNPDFITADSELTQDLPDDVEVIDLVHLKIKSLEDLNLYRFKNLKQLCLRQNLIESISEVEVLPHDKIVDLDFYDNKIKHISSNVNKLTKLTSLALSFNKIKHIKNLENLTDLENLYFVQNSISKIENLSTLKSLKNLELGGNKVHSIEPDSFEGLSNLEEIWLGKNSIPRLINLHPLKNLKILSIQSNKLKKIENLEELTNLEELYLSHNFITKIEGLEKNLKLTTLDVTSNKITSLENLNHLSNLTDIWASFNKIDQSFESLGENLSALSRLETIYLEGNPIQLENKTSYRRKLTMNLPPSLQKIDATYIRG [chain 1 D119A],~11
3,chain 1 MDKNSVNKDSEEKDERHKIEVVDDTNPDFITADSELTQDLPDDVEVIDLVHLKIKSLEDLNLYRFKNLKQLCLRQNLIESISEVEVLPHDKIVDLDFYDNKIKHISSNVNKLTKLTSLDLSFNKIKHIKNLENLTDLENLYFVQNSISKIENLSTLKSLKNLELGGNKVHSIEPDSFEGLSNLEEIWLGKNSIPRLINLHPLKNLKILSIQSNKLKKIENLEELTNLEELYLSHNFITKIEGLEKNLKLTTLDVTSNKITSLENLNHLSNLTAIWASFNKIDQSFESLGENLSALSRLETIYLEGNPIQLENKTSYRRKLTMNLPPSLQKIDATYIRG [chain 1 D273A],~19
4,"chain 1 MDKNSVNKDSEEKDERHKIEVVDDTNPDFITADSELTQDLPDDVEVIDLVHLKIKSLEDLNLYRLKNLKQLCLRQNLIESISEVEVLPHDKIVDLDFYDNKIKHISSNVNKLTKLTSLDLSFNKIKHIKNLENLTDLENLHFVQNSISKIENLSTLKSLKNLELGGNKVHSIEPDSFEGLSNLEEIWLGKNSIPRLINLHPLKNLKILSTQSNKLKKIENLEELTNLEELYLSHNFITKIEGLEKNLKLTTLDVTSNKITSLENLNHLSNLTDIWASFNKIDQSFESLGENLSALSRLETIYLEGNPIQLENKTSYRRKLTMNLPPSLQKIDATYIRG [chain 1 F65L, chain 1 Y141H, chain 1 I210T]",~13
5,"chain 1 MDKNSVNKDSEEKDERHKIEVVDDTNPDFITADSELTQDLPDDVEVIDLVHLKIKSLEDLNLYRFKNLKQLCLRQNLIGSISEVEVLPHDKIVDLDFYDNKIKHISSNVNKLTKLTSLDLSFNKIKHIKNLENLTDLENLYFVQNSISKIENLSTLKSQKNLELGGNKVHSIEPDSFEGLSNLEEIWLGKNSIPRLINLHPLKNLKILSIQSNKLKKIENLEELTNLEELYLSHNFITKIEGLEKNLKLTTLDVTSNKITSLENLNHLSNLTDIWASFNKIDQSFESLGENLSAISRLETIYLEGNPIQLENKTSYRRKLTMNLPPSLQKIDATYIRG [chain 1 E79G, chain 1 L159Q, chain 1 L295I]",~6
